Data published in US20230012273A1 (Boehringer Ingelheim, published 2023).
Substitutions are numbered along the chain they refer to. Where two headings read alike, the source gives them in different places. Each block holds one binder with its values, some of them ahead of it.

Experiments:
[1] = target: T1, full-length human SIRPγ (NP_061026.2) on cells (human, UniProt Q9P1W8 29-387); assay: flow cytometry, primary human CD3+ T cells
T1 construct: on CHO and Expi-CHO cells; endogenous on primary human CD3+ T cells; also called γ WT
T1 sequence (Q9P1W8 29-387): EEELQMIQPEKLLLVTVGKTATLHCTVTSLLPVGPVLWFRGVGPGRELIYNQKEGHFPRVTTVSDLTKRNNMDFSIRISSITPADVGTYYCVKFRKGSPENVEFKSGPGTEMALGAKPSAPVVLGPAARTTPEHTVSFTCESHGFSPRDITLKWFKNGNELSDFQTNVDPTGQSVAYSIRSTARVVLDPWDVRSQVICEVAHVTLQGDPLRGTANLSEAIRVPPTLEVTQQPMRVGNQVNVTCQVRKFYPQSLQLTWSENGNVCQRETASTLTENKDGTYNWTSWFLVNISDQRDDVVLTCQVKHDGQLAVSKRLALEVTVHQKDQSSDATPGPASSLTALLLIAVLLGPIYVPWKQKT
Description: Antibody binding to primary human T cells expressing endogenous SIRPγ is evaluated by flow cytometry. Human peripheral blood mononuclear cells (PBMCs) are blocked with donkey IgG and incubated on ice with increasing concentrations of antibody for 60 minutes, washed and stained with AF647-conjugated donkey F(ab′)₂ anti-human IgG secondary reagent. […] Cells are washed, fixed, and analyzed by flow cytometry. Median fluorescent intensity of CD3+ gated population is determined and used as a measure of antibody binding.

[2] = target: T2, full-length human SIRPβL (NP_001129316.1) on cells (human, UniProt Q5TFQ8 30-398); assay: flow cytometry, U937 SIRPα KO cells
T2 construct: on U937 SIRPα KO cells and Expi-CHO cells; also called βL WT; SIRPβ1v3
T2 sequence (Q5TFQ8 30-398): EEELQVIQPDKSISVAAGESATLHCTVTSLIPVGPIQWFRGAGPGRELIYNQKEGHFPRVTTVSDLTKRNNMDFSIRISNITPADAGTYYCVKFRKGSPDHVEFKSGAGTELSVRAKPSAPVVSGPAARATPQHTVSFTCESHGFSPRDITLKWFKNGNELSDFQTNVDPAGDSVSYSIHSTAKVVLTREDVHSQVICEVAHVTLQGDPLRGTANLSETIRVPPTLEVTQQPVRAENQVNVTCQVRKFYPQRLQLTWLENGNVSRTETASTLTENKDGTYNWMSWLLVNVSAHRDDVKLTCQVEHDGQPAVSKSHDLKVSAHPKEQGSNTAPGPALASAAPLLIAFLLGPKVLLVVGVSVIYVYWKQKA
Description: (§1) Antibody binding to cells expressing full-length human SIRPβ1 (NP_006056.2) and SIRPβL (NP_001129316.1) is evaluated by flow cytometry. SIRPβ1- or SIRPβL-expressing U937^{SIRPα KO} cells are blocked with donkey IgG and incubated on ice with increasing concentrations of antibodies for 60 minutes, washed and stained with AF647-conjugated donkey F(ab′)₂ anti-human IgG secondary reagent. Cells are washed, fixed, and analyzed by flow cytometry. Median fluorescent intensity is determined and used as a measure of antibody binding.

[3] = target: T3, human SIRPβL/SIRPβ1v3 extracellular domain + His-tag (NP_001129316.1) (human, UniProt Q5TFQ8 30-371); assay: SPR, Ab captured, ECD-His analyte
T3 construct: also called hSIRPβ1v3; HuSIRPβ1v3
T3 sequence (Q5TFQ8 other isoform, or with tags, fused parts or gaps): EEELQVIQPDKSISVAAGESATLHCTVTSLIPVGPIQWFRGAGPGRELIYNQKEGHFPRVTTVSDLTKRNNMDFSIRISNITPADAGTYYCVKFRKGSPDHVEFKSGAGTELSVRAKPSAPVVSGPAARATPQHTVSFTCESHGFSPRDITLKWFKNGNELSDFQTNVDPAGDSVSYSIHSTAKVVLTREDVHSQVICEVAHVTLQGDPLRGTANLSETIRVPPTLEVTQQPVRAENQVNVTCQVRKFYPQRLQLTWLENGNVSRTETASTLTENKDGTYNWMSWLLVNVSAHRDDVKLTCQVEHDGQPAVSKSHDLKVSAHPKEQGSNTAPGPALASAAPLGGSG
How it was run: (§2)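 SPR; Ab capture surface, ethanolamine-deactivated (1M, 420 s, 10 μl/min). Analyte: SIRP ECD+His, 2-fold dilution series in 1×HBS-EP+. Inject 300 s @ 30 μl/min; dissoc. 600 s.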

[4] = target: T4, human SIRPβ1 extracellular domain + His-tag (NP_006056.2) (human, UniProt O00241 30-371); assay: SPR, Ab captured, ECD-His analyte
T4 construct: also called hSIRPβ1; HuSIRPβ1
T4 sequence (O00241 other isoform, or with tags, fused parts or gaps): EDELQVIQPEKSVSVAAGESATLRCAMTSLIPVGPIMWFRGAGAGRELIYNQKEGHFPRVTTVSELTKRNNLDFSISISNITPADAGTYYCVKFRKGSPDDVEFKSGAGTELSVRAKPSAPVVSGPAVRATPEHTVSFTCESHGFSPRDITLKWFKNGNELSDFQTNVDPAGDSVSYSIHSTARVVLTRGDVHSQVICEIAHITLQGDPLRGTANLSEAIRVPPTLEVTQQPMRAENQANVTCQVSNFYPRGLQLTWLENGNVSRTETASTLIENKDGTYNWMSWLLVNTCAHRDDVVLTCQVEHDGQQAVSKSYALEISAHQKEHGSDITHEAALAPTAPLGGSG
How it was run: as §2

[5] = target: T5, human SIRPγ extracellular domain + His-tag (NP_061026.2) (human, UniProt Q9P1W8 29-360); assay: SPR, Ab captured, ECD-His analyte
T5 construct: also called hSIRPγ; HuSIRPγ
T5 sequence (Q9P1W8 29-360): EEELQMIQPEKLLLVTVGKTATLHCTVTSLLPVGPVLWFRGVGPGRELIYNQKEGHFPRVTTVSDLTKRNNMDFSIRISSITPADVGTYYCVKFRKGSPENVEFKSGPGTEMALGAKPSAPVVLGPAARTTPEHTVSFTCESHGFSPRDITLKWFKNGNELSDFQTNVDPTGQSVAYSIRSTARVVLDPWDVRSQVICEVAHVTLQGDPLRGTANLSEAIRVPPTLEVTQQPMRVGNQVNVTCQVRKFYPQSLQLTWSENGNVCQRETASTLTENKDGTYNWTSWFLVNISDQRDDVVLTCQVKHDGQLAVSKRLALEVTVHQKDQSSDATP
How it was run: as §2

[6] = target: T6, cynomolgus SIRPα extracellular domain + His-tag (EGM_02252) (cynomolgus monkey); assay: SPR, Ab captured, ECD-His analyte
T6 construct: also called CySIRPα EGM_02252; cynoSIRPα
T6 chain: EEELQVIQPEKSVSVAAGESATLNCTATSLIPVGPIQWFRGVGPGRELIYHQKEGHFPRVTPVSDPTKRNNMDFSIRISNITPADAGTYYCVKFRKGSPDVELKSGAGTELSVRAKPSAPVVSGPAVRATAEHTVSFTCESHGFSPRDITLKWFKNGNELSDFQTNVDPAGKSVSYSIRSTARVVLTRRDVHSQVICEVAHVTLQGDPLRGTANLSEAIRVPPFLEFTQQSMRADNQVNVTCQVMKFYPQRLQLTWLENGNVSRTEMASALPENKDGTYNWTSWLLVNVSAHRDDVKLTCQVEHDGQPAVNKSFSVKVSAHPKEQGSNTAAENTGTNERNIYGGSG
How it was run: as §2

[7] = target: T7, mouse SIRPα extracellular domain + His-tag (NP_031573) (mouse, UniProt P97797 32-373); assay: SPR, Ab captured, ECD-His analyte
T7 chain: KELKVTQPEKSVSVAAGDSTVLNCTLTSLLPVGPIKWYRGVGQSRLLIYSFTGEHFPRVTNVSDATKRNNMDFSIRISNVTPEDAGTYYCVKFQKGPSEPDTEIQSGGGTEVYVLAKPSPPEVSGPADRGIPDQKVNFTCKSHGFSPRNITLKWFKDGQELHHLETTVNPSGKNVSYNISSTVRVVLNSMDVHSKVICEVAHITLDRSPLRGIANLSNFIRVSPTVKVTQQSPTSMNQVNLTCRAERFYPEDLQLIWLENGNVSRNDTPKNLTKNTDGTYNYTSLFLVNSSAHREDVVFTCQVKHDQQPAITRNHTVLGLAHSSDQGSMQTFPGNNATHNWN
How it was run: as §2

[8] = target: T8, cynomolgus SIRPβ1v3 extracellular domain + His-tag (XP_005568593) (cynomolgus monkey); assay: SPR, Ab captured, ECD-His analyte
T8 construct: also called Cyno SIRPβ1v3; cynoSIRPβ1v3
T8 chain: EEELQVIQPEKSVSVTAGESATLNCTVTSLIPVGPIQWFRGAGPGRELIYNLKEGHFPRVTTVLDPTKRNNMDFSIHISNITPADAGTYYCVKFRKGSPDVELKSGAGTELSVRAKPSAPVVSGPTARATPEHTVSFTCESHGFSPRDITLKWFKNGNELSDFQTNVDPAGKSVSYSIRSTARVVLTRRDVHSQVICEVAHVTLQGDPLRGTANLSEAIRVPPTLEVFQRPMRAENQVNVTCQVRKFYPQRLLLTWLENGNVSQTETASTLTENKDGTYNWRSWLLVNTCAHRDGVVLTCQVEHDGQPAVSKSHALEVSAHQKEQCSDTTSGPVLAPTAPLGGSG
How it was run: as §2

[9] = target: T9, cynomolgus SIRPα extracellular domain + His-tag (NP_001271679) (cynomolgus monkey); assay: SPR, Ab captured, ECD-His analyte
T9 construct: also called CySIRPα NP_001271679; cynoSIRPα
T9 chain: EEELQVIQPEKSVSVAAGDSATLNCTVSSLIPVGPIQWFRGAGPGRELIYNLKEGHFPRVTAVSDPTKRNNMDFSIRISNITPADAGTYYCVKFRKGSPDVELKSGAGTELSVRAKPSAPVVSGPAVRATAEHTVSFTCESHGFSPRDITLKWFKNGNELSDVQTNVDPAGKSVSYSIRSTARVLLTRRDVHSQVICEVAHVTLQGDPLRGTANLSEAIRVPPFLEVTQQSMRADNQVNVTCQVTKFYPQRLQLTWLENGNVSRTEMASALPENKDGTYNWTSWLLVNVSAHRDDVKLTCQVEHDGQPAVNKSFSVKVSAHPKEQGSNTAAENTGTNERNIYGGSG
How it was run: as §2

[10] = target: T10, cynomolgus SIRPα (NP_001271679) extracellular domain + His-tag (cynomolgus monkey); assay: SPR, antibody captured, ECD-His analyte
T10 construct: SPR analyte; also called CySIRPα NP_001271679; cynoSIRPα; not shown: His-tag
T10 chain: T9 chain
How it was run: as §2

[11] = target: T11, cynomolgus SIRPβ1v3 (XP_005568593) extracellular domain + His-tag (cynomolgus monkey); assay: SPR, antibody captured, ECD-His analyte
T11 construct: SPR analyte; also called Cyno SIRPβ1v3 XP_005568593; cynoSIRPβ1v3; not shown: His-tag
T11 chain: T8 chain
How it was run: as §2

[12] = target: T12, cynomolgus SIRPα (EGM_02252) extracellular domain + His-tag (cynomolgus monkey); assay: SPR
T12 construct: SPR analyte; also called CySIRPα EGM_02252; cynoSIRPα; not shown: His-tag
T12 chain: T6 chain
How it was run: as §2

[13] = target: T13, cynomolgus SIRPβ1 (XP_005568598) extracellular domain + His-tag (cynomolgus monkey); assay: SPR
T13 construct: SPR analyte; also called Cyno SIRPβ1 XP_005568598; cynoSIRPβ1; not shown: His-tag
T13 chain: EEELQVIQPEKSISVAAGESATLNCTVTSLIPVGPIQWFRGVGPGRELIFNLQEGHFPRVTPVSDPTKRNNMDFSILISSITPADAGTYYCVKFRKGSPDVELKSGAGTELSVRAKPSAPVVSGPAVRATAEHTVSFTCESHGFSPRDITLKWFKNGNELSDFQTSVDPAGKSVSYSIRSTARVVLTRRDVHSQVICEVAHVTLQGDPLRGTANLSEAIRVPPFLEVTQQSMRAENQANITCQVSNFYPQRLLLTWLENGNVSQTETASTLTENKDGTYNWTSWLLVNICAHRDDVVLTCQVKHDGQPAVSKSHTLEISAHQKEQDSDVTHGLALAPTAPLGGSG
How it was run: as §2

[14] = target: T14, cynomolgus SIRPγ (XP_005568591) extracellular domain + His-tag (cynomolgus monkey, UniProt Q9P1W8 29-359 (human entry)); assay: SPR
T14 construct: SPR analyte; also called Cyno SIRPγ XP_005568591; cynoSIRPγ; not shown: His-tag
T14 chain: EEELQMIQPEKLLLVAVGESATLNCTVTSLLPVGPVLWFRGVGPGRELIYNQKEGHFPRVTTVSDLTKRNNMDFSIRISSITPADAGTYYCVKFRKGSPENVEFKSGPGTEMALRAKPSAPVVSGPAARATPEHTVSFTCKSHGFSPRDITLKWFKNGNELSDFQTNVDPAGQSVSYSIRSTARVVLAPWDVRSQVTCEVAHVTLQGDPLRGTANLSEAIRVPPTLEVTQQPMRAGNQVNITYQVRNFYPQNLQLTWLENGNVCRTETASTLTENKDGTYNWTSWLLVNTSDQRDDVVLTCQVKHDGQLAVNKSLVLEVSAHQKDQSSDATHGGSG
How it was run: as §2

[15] = target: T15, full-length human SIRPβ1 (NP_006056.2) on cells (human, UniProt O00241 30-398); assay: flow cytometry, U937 SIRPα KO cells
T15 construct: on U937 SIRPα KO cells and Expi-CHO cells; also called β1 WT
T15 sequence (O00241 30-398): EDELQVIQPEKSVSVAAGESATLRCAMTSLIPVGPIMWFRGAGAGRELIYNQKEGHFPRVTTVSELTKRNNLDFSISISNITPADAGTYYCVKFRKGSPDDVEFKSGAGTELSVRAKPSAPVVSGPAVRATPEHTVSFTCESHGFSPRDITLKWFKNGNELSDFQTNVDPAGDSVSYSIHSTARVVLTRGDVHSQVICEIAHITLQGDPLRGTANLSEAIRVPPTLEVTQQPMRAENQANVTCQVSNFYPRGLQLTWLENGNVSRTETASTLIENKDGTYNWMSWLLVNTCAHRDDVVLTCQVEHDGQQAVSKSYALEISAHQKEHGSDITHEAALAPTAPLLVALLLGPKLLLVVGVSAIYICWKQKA
Description: as §1

[16] = target: T3, human SIRPβL/SIRPβ1v3 extracellular …; assay: SPR, Ab captured, ECD-His analyte; remark: listed apart in the source
How it was run: as §2

[17] = target: T4, human SIRPβ1 extracellular domain + …; assay: SPR, Ab captured, ECD-His analyte; remark: listed apart in the source
How it was run: as §2

[18] = target: T16, human SIRPαV1 extracellular domain + His-tag (NP_542970.1) (human, UniProt P78324 31-373); assay: SPR, Ab captured, ECD-His analyte
T16 construct: also called hSIRPαV1; HuSIRPαV1
T16 sequence (P78324 other isoform, or with tags, fused parts or gaps): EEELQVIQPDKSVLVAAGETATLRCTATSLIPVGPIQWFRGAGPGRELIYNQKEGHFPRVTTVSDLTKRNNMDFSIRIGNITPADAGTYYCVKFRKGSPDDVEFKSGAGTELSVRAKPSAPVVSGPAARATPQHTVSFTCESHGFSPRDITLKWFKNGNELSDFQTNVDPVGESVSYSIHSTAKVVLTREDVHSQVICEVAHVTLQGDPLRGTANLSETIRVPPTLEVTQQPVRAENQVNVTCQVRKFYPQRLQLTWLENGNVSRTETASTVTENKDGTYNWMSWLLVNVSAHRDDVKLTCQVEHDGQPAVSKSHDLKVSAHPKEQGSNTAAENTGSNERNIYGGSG
How it was run: as §2

[19] = target: T17, human SIRPαV2 extracellular domain + His-tag (CAA71403.1) (human, UniProt P78324 31-373); assay: SPR, Ab captured, ECD-His analyte
T17 construct: also called hSIRPαV2; HuSIRPαV2
T17 sequence (P78324 other isoform, or with tags, fused parts or gaps): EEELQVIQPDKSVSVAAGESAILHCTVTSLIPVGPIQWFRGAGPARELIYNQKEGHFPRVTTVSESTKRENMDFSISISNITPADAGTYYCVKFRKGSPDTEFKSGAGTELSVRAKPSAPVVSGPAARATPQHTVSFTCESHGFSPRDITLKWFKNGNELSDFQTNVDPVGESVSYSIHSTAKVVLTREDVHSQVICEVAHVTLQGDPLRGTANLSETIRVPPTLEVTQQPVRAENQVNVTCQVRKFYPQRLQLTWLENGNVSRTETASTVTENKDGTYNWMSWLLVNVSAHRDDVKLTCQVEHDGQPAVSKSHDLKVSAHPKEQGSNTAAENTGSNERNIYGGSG
How it was run: as §2

[20] = target: T5, human SIRPγ extracellular domain + …; assay: SPR, Ab captured, ECD-His analyte; remark: listed apart in the source
How it was run: as §2

[21] = target: T18, SIRPαV2 domain 1 (amino acids 31-148) with N-terminal GST tag (human, UniProt Q5TFQ8 30-148); assay: crystal structure
T18 construct: also called domain 1 of the extracellular domain of human SIRPα-V2
T18 sequence (Q5TFQ8 other isoform, or with tags, fused parts or gaps): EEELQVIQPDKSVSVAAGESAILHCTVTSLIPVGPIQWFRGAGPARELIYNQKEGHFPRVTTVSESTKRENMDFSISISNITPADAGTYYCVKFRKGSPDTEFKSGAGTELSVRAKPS
Description: Protein was expressed in Origami B(DE3) cells and purified using standard protocols for GST-tagged proteins. Fractions were analyzed by SDS-PAGE and fractions containing the desired protein were pooled and concentrated to 24 mg/ml in 25 mM HEPES; 100 mM NaCl; 5% Glycerin; pH 7,0.

B1: Antibody F (antibody, human IgG4 S228P, kappa)
heavy: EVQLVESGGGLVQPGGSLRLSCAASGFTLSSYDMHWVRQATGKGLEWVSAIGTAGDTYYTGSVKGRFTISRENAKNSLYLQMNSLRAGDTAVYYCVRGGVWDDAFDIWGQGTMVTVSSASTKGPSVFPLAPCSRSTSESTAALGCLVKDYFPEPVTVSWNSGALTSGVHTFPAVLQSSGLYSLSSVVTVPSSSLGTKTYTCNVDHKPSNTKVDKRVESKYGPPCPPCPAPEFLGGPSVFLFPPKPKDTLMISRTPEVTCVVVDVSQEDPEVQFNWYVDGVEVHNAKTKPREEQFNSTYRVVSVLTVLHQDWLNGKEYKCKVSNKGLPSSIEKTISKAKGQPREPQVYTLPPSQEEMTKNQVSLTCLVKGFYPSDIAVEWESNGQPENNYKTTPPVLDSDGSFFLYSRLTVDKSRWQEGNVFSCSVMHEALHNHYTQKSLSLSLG
light: DIQMTQSPSSLSASVGDRVTITCRASQDINNYLAWFQQKPGKAPKSLIYTASSLHSGVPSKFSGSGSGTDFTLTISSLQPEDFATYYCQQYVSYPYTFGQGTKLEIKRTVAAPSVFIFPPSDEQLKSGTASVVCLLNNFYPREAKVQWKVDNALQSGNSQESVTEQDSKDSTYSLSSTLTLSKADYEKHKVYACEVTHQGLSSPVTKSFNRGEC
- binding result [1]: no binding
- binding result [2]: no binding
- binding result [3]: no binding (tested: 100 nM)
- Kd [4]: 84 nM
- binding result [5]: no binding (tested: 1000 nM)
- Kd [6]: 230 nM
- binding result [7]: no binding
- Kd [8]: 227 nM
- Kd [9]: 506 nM

B3: Antibody E22 (antibody, human IgG1, kappa, L234A L235A, V domains shown)
VH: QVQLQESGPGLVKPSETLSLTCTVSGGSIRDYYWSWIRQPPGKGLEWIGFIYYNGRTFYQSSLKSRVTISLDTSKNQFSLKMTSVTAADTAVYYCARVRAYSGIGLDGTDVWGQGTTVTVSS
VL: DIVMTQSPLSLPVTPGEPASISCRSSQSLLYSTGYTYLDWYLQRPGQSPQLLIYGGSSRASGVPDRFSGSGSGTDFTLKISRVEAEDVGVFYCGQALQTPLTFGQGTKVEIKR
- binding result [1]: no binding
- binding result [15]: no binding
- Kd [16]: 3.19 nM
- binding result [17]: no binding (tested: 1000 nM)
- Kd [18]: 1.57 nM
- Kd [19]: 1.47 nM
- binding result [20]: no binding (tested: 1000 nM)

The remaining lines, values ahead:

- Kd [10]: 50.3 nM
- Kd [11]: 30.3 nM
- binding result [12]: no binding (tested: 1000 nM)
- binding result [13]: no binding (tested: 1000 nM)
- binding result [14]: no binding (tested: 1000 nM)
B2: Antibody E16 (antibody, human IgG1, kappa, L234A L235A, V domains shown)
VH: B3 VH with K13R, D31N, Q60N, S61P
VL: B3 VL with R24K, T33N, G34A, T36N, G55L, S58N, F91Y, G94M, Q105G

- binding result [21]: binds
B4: Fab fragment of Antibody A (Fab, V domains shown)
VH: EVQLVESGGGLVQPGGSLRLSCAASGFTLSSYDMHWVRQATGKGLEWVSAIGTAGDTYYTGSVKGRFTISRENAKNSLYLQMNSLRAGDTAVYYCVRGGVWDDAFDIWGQGTMVTVSS
VL: DIQMTQSPSSLSASVGDRVTITCRASQDINNYLAWFQQKPGKAPKSLIYTASSLHSGVPSKFSGSGSGTDFTLTISSLQPEDFATYYCQQYVSYPYTFGQGTKLEIK
notes: Fab; also called Fab of Antibody A
